Source: patent publication US20250163162A1

Target: T1, IL10Rα and IL2Rγ on human primary cells (CD8 T cells, CD4 T cells, monocytes) (human) (UniProt Q13651)
T1 sequence (looked up) 1: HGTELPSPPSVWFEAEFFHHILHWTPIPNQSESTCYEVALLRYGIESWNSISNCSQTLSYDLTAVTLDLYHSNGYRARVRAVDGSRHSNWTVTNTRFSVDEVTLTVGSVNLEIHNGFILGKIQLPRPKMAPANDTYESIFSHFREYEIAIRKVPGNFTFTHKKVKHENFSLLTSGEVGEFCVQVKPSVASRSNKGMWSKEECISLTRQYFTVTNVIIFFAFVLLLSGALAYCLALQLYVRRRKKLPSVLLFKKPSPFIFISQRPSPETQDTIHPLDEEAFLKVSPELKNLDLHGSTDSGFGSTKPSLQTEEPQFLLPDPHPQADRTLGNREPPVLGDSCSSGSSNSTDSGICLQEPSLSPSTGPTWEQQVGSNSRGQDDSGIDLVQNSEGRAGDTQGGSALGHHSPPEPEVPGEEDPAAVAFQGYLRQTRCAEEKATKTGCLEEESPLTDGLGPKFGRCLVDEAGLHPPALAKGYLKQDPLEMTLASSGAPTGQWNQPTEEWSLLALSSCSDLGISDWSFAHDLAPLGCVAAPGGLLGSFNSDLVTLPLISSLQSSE
T1 sequence (looked up) 2: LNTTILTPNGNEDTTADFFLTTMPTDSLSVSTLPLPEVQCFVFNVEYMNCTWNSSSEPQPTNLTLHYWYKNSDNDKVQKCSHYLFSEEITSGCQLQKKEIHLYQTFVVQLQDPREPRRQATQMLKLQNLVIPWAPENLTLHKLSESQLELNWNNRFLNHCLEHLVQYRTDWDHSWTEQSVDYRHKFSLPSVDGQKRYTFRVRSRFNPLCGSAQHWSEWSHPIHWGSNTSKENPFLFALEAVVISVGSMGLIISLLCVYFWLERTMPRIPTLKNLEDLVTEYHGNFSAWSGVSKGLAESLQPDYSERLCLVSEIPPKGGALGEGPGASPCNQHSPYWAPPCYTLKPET
Test: cell-based or functional assay

pSTAT3 (MFI) in CD4 T cells at 0.0001 µM: 12800 MFI
pSTAT3 (MFI) in CD4 T cells at 0.001 µM: 11800 MFI
pSTAT3 (MFI) in CD4 T cells at 0.01 µM: 11100 MFI
pSTAT3 (MFI) in CD4 T cells at 0.1 µM: 10200 MFI
pSTAT3 (MFI) in CD4 T cells at 1 µM: 9970 MFI
pSTAT3 (MFI) in CD4 T cells at 10 µM: 11400 MFI
pSTAT3 (MFI) in CD4 T cells at 100 µM: 10300 MFI
pSTAT3 (MFI) in CD8 T cells at 0.0001 µM: 7840 MFI
pSTAT3 (MFI) in CD8 T cells at 0.001 µM: 7520 MFI
pSTAT3 (MFI) in CD8 T cells at 0.01 µM: 6920 MFI
pSTAT3 (MFI) in CD8 T cells at 0.1 µM: 6780 MFI
pSTAT3 (MFI) in CD8 T cells at 1 µM: 6480 MFI
pSTAT3 (MFI) in CD8 T cells at 10 µM: 7330 MFI
pSTAT3 (MFI) in CD8 T cells at 100 µM: 6930 MFI
pSTAT3 (MFI) in monocytes at 0.0001 µM: 4230 MFI
pSTAT3 (MFI) in monocytes at 0.001 µM: 4710 MFI
pSTAT3 (MFI) in monocytes at 0.01 µM: 4700 MFI
pSTAT3 (MFI) in monocytes at 0.1 µM: 4690 MFI
pSTAT3 (MFI) in monocytes at 1 µM: 4620 MFI
pSTAT3 (MFI) in monocytes at 10 µM: 4550 MFI
pSTAT3 (MFI) in monocytes at 100 µM: 4860 MFI
B1: hIL10Ra_VHH14-hIL2Rg_VHH19, linker …, tag his (bispecific antibody, not shown: small tags and cut ends)
chain: QVQLQESGGGSVQAGGSLRLSCGASGYTYSSYCMGWFRQVPGKEREGVAVIDSDGSTSYADSVKGRFTISKDNGKNTLYLQMNSLKPEDTAMYYCAADLGHYRPPCGVLYLGMDYWGKGTQVTVSSGGSGGSGGSGQVQLQESGGGSVQAGGSLRLSCTASGFTFDDREMNWYRQAPGNECELVSTISSDGSTYYADSVKGRFTISQDNAKNTVYLQMDSVKPEDTAVYYCAADFMIAIQAPGAGCWGQGTQVTVSS
